Primed or numbered codes have the meaning given here. Ends that are not written are not given here. * marks the point of attachment. Biotin = O=C1N[C@H]2[C@H](CS[C@H]2CCCCC(=O)*)N1; DBCO′ = dibenzocyclooctyne
T1: Az3
T1 construct: Unclicked precursor of Az3db1; also called azide-peptide Az3; single half-peptide
T1 peptide: Biotin-SGGGERTHK(azide)

T2: db1
T2 construct: Unclicked precursor of Az3db1; also called DBCO-ARPDGG; db1 half-peptide
T2 peptide: {DBCO′}-ARPDGG

T3: Az3db1 (also: triazole at chain A 9 to a chain's N-terminus)
T3 construct: Two synthetic peptides joined through the azide-DBCO click product; conversion to the click product was >=70%; also called click product of peptides Az3 and db1; original selection peptide
T3 peptide 1: Biotin-SGGGERTHK(azide)
T3 peptide 2: {DBCO′}-ARPDGG


What was measured:
Az3 [1] = target: T1, Az3; assay: competition ELISA: ratio of response slopes on immobilised Az3db1 without competitor / with soluble Az3
Method: (§1) We ranked the five scFv proteins 1S-5S in terms of their desired specificities and binding affinities. For this purpose, a series of ELISA-based competition assays were established, where scFvs were preincubated in solution with designated competitors before testing against immobilized target Az3db1 peptide. These included Az3db1 itself, and its constituent peptides Az3 and db1, in large (×100-fold) molar excess over the scFv proteins.
(§2) All ELISA assays used biotinylated target peptides for immobilized on streptavidin (SA) plates. For testing responses against Az3db1 (FIG. 3), a stock of the click product between peptides Az3 and db1 was made by incubating both together at 4.5 mM concentration in PBS pH 7.4 for 16 hr, conditions resulting in ≥70% conversion to the click product (FIG. 4). The resulting Az3db1 was positioned in an SA plate by incubating appropriate wells (after initial plate washing) with 100 μl of 1 pmol/μl of peptide. Dilutions of scFvs or IgG1-51 were made in PBS with 10 mg/ml bovine serum albumin (BSA) to levels typically beginning at 50 pg/μl, then in extended 2-fold dilution series from that point. Antibody or scFv dilutions were then incubated with Az3db1 target for 1 hr/room temperature, followed by treatment with appropriate secondary antibody-HRP conjugates (anti-human kappa for IgG1-51, anti-6H hexahistidine for all scFvs). After extensive washing, signals based on HRP activity from standard chromogenic substrates were read in a plate reader and collated.

db1 [2] = target: T2, db1; assay: competition ELISA: ratio of response slopes on immobilised Az3db1 without competitor / with soluble Db1
Method: as §1
as §2, with “Antibody or scFv dilutions were then incubated with Az3db1 target for 1 hr/room temperature, followed by treatment with appropriate secondary antibody-HRP conjugates (anti-human kappa for IgG1-51, anti-6H hexahistidine for all scFvs).” left out

Az3 [3] = target: T1, Az3; assay: phage ELISA, scFv displayed on M13
db1 [4] = target: T2, db1; assay: phage ELISA, scFv displayed on M13
[5] = target: (glycan chain)--(N-acetylmannosamine)-<azide-DBCO>-ARPDGG; assay: flow cytometry on Jurkat cells pre-incubated with AzNAM and treated with Db1 peptide; DMSO-control cells treated with Db1 printed as 'Geo. Mean = 1.4'
Az3db1 [6] = target: T3, Az3db1; assay: ELISA-based competition in solution by the method of Friguet et al.; average of four independent determinations
Az3db1 [7] = target: T3, Az3db1; assay: competition ELISA after Friguet, plot of Ao/(Ao-A) against 1/a0 with soluble Az3Db1 competitor; one single determination
Method: The binding affinity of IgG1-51 antibody towards Az3db1 was measured in an ELISA-based format by the method of Friguet et al. (1985), to yield the dissociation constant (KD) from a specific data plot. Because the total concentration of free competitor in these studies is large compared to the concentration of antibody (antibody concentration ˜0.1 nm), the simplification of the Scatchard-Klotz equation as derived by Friguet et al. was used, as: […]

Binder	binding result (Az3 [1])	binding result (Az3 [3])	binding result (db1 [4])	further results
scFv-18 (scFv, VH-(GGGGS)3 linker-VL from the human phage library HuScL-6; Protein ELISAs used an E. coli hexahistidine (6H) fusion; also called scFv-1S; 1S) scFv: QVQLVESGSELKKPGASVKVSCKASGYTFTNYAMNWVRQAPGQGLEWLGWINTNTGNPTYAQGFTGRFVFSLDTSVSTAYLQISSLKAEDTAVYYCARGSLGGTFDYWGQGTPVTVSSGGGGSGGGGSGGGGSQAVLTQPSSLSASPGASASLTCTLRSGINVGTYRIYWYQQKPGSPPQYLLRYKSDSDKHQDSGVPSRFSGSTDASANAGILLISGLQSEDEADYYCMIWHSRAWVFGGGTRGEIKR	no binding			binding result (db1 [2]): no binding
scFv-72 (scFv, VH-(GGGGS)3 linker-VL from the human phage library HuScL-6; expression as a protein failed) scFv: EVQLVESGAEVKKPGASVKVSCKASGYTFTSYAMNWVRQAPGQGLEWMGWINTNTGNPTYAQGFTGRFVFSLDTSVSTAYLQISSLKAEDTAVYYCARQRDYRMDVWGQGTMVTVSSGGGGSGGGGSGGGGSQAVLTQPSSLSASPGASASLTCTLRSGINVGTYRIYWYQQKPGSPPQYLLRYKSDSDKQQASGVPSRFSGSKDASANAGILLISGLQSEDEADYYCLIWHNNAWVFGGGTKVTVLG		no binding	no binding	
IgG1-51 (antibody, V domains shown, VH and VL of scFv-51 fused in frame to human Cgamma1 and Ckappa and co-expressed in Hek293 cells; also called Ab51; antibody 51; not shown: Human Gamma1 C-region, Uniprot code P01857.1; Human Kappa C-region, Uniprot code P01834.2) VH: QMQLVQSGSELKKPGASVKVSCKASGYTFTSYAMNWVRQAPGQGLEWMGWINTNTGNPTYAQGFTGRFVFSLDTSVSTAYLQISSLKAEDTAVYYCARFDRPRGAFDIWGQGTLVTVSS VL: QAVLTQPSSLSASPGASASLTCTLRSGINVGTYRIYWYQQKPGSPPQYLLRYKSDSDKQQGSGVPSRFSGSKDASANAGILLISGLQSEDEADYYCMIWHSSAWVFGGGTKLTVLG				geometric mean fluorescence (Geo. Mean) [5]: 226; Kd (Az3db1 [6]): 160 nM; Kd (Az3db1 [7]): 175 nM
scFv-44 (scFv, VH-(GGGGS)3 linker-VL from the human phage library HuScL-6; Protein ELISAs used an E. coli hexahistidine (6H) fusion; also called scFv-3S; 3S) scFv: QVQLVQSGAEVKKPGSSVKVSCKASGYTFADYAINWVRQAPGQGLEWMGWINTNTGNPTYAQGFTGRFVFSLDTSVSTAYLQISSLEAEDTAVYYCARHFSGYSLDAVDIWGQGTLVTVSSGGGGSGGGGSGGGGSQAVLTQPSSLSASPGTSASLTCTLRSDINVGAYRIYWYKHKAGSPPQFLLRFKSDSDNYRGSGVPGRFSGSKDASANAGILLISGLQSEDEADYYCAIWHSSTWVFGGGTKLTVLG	no binding			binding result (db1 [2]): no binding
scFv-36 (scFv, VH-(GGGGS)3 linker-VL from the human phage library HuScL-6; Protein ELISAs used an E. coli hexahistidine (6H) fusion; also called scFv-2S; 2S) scFv: QVQLVQSGAEVKKPGASVKVSCKASGYTFTSYGISWVRQAPGQGLEWMGWINTNTGNPTYAQGFTGRSVFSLDTSVSTAYLQISSLKAEDSAVYYCARHSDDGAFDIWGKGTMVTVSSGGGGSGGGGSGGGGSQAVLTQPSSLSASPGASASLTCTLRSGINVGTYRIYWYQQKPGSPPQYLLRYKSDSDKQQGSGVPSRFSGSKDASANAGTLLISGLQSEDEADYYCAIWHSSTWVFGGGTKVTVLG	no binding			
scFv-69 (scFv, VH-(GGGGS)3 linker-VL from the human phage library HuScL-6; It was also expressed as an E. coli hexahistidine (6H) fusion) scFv: QVQLVQSGSELKKPGASVKVSCKASGYTFTSYAMNWVRQAPGQGLEWMGWINTNTGNPTYAQGFTGRFVFSLDTSVSTAYLQISSLKAEDTAVYYCARGAAGVFDIWGKGTTVTVSSGGGGSGGGGSGGGGSQAVLTQPSSLSASPGASASLTCTLRSGINVGTYNIYWYQQKPGSPPQFLLRYKSDSDKQQVSGVPSRFSGSKDGSANAGILLISGLQSEDEADYYCMIWHSSAWVFGGGTKLTVLG		no binding	no binding	
scFv-83 (scFv, VH-(GGGGS)3 linker-VL from the human phage library HuScL-6; expression as a protein failed) scFv: QVQLVQSGAEVKKPGASVKVSCKASGYSFTSYAMNWVRQAPGQGLEWMGWINTNTGNPMYAQGFTGRFVFSLDTSVSTAYLEVSSLKAEDTAVYFCARYNAMDVWGQGTTVTVSSGGGGSGGGGSGGGGSQAVLTQPSSLSASPGASASLTCTLRSGINVGTYRIYWYQQKPGSPPQYLLRYKSDSDKQQGSGVPSRFSGSKDASANAGILLISGLQSEDEADYYCMIWHSSAWVFGGGTKVTVLG		no binding	no binding	
scFv-64 (scFv, VH-(GGGGS)3 linker-VL from the human phage library HuScL-6; It was also expressed as an E. coli hexahistidine (6H) fusion) scFv: EVQLVESGSELKKPGASVKVSCKASGYTFTSYAINWVRQAPGQGLEWMGWINTNTGNPTYAQGFTGRFVFSLDTSVSTAYLQISSLKAEDTAVYYCARGYYDSSGYNFDYWGKGTLVTVSSGGGGSGGGGSGGGGSQAVLTQPSSLSASPGASASLTCTLRSGINVGTYRIYWYQQKPGSPPQYLLRYKSDSDKQQGSGVPSRFSGSKDASANAGILLISGLQSEDEADYYCMIWHSSAWVFGGGTKLTVLG		no binding	no binding	
